This note sets out measurements from the NTF2 design screens of Basanta et al. (2020).

The data set can be described thus: protease stability score; higher = more stable; yeast display proteolysis, trypsin and chymotrypsin.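 Note: relative to predicted unfolded state with 0 unfolded-like and 1 meaning tenfold more protease.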
Turning to “EEDEEVAYHFMEEWFHYVHTGNEEMLERMLDPDVKLTFDGKEFHGRETVLRAIIEWRIEHVRIKDFRFKVINGRAEIRLDGERRGQIDGVKRETRIIIEINVHKVDGKWKIERVELHTL”, the protease stability score was determined as 2.1.

“EEDEEYLRKHYTDLKHALETGDEDRIMELFDPHVRIDDEDHNLHGREELFRWLHDLGIDHHELRIDDFKIDGDKVSIDGHLRVIVNGRDIHFRTIIRIKKVNGQWRLTHLEIR” gave a protease stability score of 1.94. For “EEDEHFAESYAEIMIHSWITGNEDLFEHLADPNWRLRVGDKEFHGREEATEFLIEFYERIDHFEIHIHDMKNIGEKLFIDGELNIHVNGRTIRHHTEIVIYTINGKVKSEEVRIK” the value was 1.95; for “EEDEKTAEEMMHIWIKYLMTGNEERLYKLVDPNARIEFNGRTDHGRESFTKFLRELGIKHSHIEEIRWDVQGEKVILTLHGRLDVNGVDRSNEILIIAEKVNGRWRVESVHLHLR”, 1.27. For “EEDFRLVDKFIKDFWKSFRTGDEDLFKKYLDPHVQLEVNGQEIHGREQLSRVLVELIIEFGVDHVEFRLHDWHIYDGQAEHHTHVRLKYGDKNVRRTLHIFMLKVDGRWILESMVIR”, the protease stability score came out at 1.26. For “EEDHEIVEKMLKMLFHSWHTGDEKLFKTLVDPNAKFVIGDKTFHGREFYKFLHDRFDHFRMHDITVRKVEHFDGRLIAHVEIHWRLHIGDKTETEVTESHIIIEKIDGKWRNRSIIVH” the value was 1.76.

In turn, “EEDHSEVERRLEIILHKWETGDERILHHYLDPHAKFIINGREYHGRENALEHWVKSEEDLGVKHERLREYDFRYQGDKVELHTEIELHVGNKVFDIHIIIIARKVNGRWVIEEVRLEFR” showed a protease stability score of 1.23. “EEDKDWAEWAMRLFVELLFTGDEERLNHFLDPHVRVEFNGRDLHGREMLEKLLELMGIDHIQFKHIELRVIDGQVHLHIDGFADIDGRTHRIRIHMHFEKINGKWRFHSVKFEHK” came in with a protease stability score of 1.39. For “EEDKEDAKKAAEISSHSWETGDEDHLTKLFDPNVRITIGDKELHGMSLLHTFLREWGISNVDFRLHHIDVQGEKLKVDGILNVNGRHTKVTLHYEKINGKWVIKEIIII” the value was 1.26; for “EEDKETAEHFSRVLHENWETGDEHRELLYMDPNVRTDFNGVDAVGREEFHKLVHHLLTHIRMRSLHIRKVHIQGEYLHIEGELNTEVNGREVVLEMRITSLKINGRWITHSMHFR”, 0.304. In the case of “EEDLEHILELSEYFIRAWSTGDWDTIHKYADPHVRSDINGVESHGMEEMIRVYEEIRVTIEHVHYDHVTVQGEKLIVDGRMDYRVDINGKKKEHRTRVEIHVDVVNGRIKSFVINYR” it was 1.23; in that of “EEDQEIFEQAMRELINSNLTGNEHRMQELADPHVRLIVGDKTYIGRESIWRFLFEWRIDHIEIRSYDIQGDKVHVDIEVHMRYGDKSTVSRMELRAEKVNGRWHIHFIRIH”, 1.75.

In the case of “EEDQKMLEMVFRIILDLWITGDFDLIERLLDPDVRLDSKIGDKTVHHHGREEVAKHLFHIRIEDFIIHRVHVQGDKITINGELDGHFNGKRFNSEIHIHYVVINGRIRRLSFEEN”, the protease stability score was 2.2. In the case of “EEDREHAREILRQLHHWFMTGDEEKWSKLMDPDARHHIHVGDKHSEYHGREEVIRFLRELIRHWRIDEVRIRRLHSIDGRVHSDIIVDGQVDGRHDRRDYELRVSVVDGRLKEVTIIVH” it was 1.07.

Turning to “EEDREWVERIIRHYREAELTGDEDRMKELVDPNTRFHIDGVVYHGMDEWTRYVRELRMRSRTRVHQVRVIDGRIEADFEYEIHIEINGVQIDRRQEVILIFKKVNGKWIVERVIVV”, the protease stability score came to 1.93. In turn, “EEDRKHAEHVFELLMEVLLTGDWKMSRHLFDPNARIEIDGVESHGWEFIYRLLRFIWEHLGIKVRDMKIRRFDVINGVAHFDGELRLHVDGVEIVLEIRLNIFVINGRLKEVHLKRT” returned a protease stability score of 1.42.

As for “EEDRNDVEDFLRMFRTALTTGDEHILEHLADPNTRVDINGKEWHGWHHVSELHKKHLEDLGADHVEFRVHDFRIIGNKVHVDSRLIEHQGDKILIINTIIIQLKINGRWVIHELRFR”, the protease stability score stood at 0.988. In turn, “EEDRRMVEDAIRIFLKSLRTGDEESLTRMVDPHVKYHQGEYHMHGREELVRYFAERWEELGVENINTDMRPTHIEFQGEKIIIMGRYHLHVNGRESHTRIEFIATKIDGQWRLHKIRFE” returned a protease stability score of 1.53. In the case of “EEDSEMAREISESILRMIKTGDERHFMRLLDPHVKIDINGREHHGRHAATHQLRETSEKFGFDRITVRLESVHVQGEYVNINGRVEQGDFHLTLHFHFRKIDGRWVMDSVHIV” it was 0.559; in that of “EEEAAHQFNKWLSLMKHGNEHKASEMLDKDAHIKVGDKTLQGREDVQRDVRRRKEELKFSMTIVDYKDHGDKARLTVEQTNDHNGRPRTRRANVTVHVSNGRVKEIVINDDS”, -0.16; in that of “EEEDDVLHEFLREFIHFFSTGDFDHIIEMLDPNTQQHVGDKINIGREEWKHWLKFHLDRLGVDQVRVHVRRVRFFNGRVELNIELRQGDYVFDARILALKVDGRWLLESVEIK”, 2.82. In the case of “EEEDEWSREAVEFFKRMVETGDEDLQETLADPNARLIQGDKDEHGRHVLSEWMHRMGVDHIRFHHIDVQGDKVRLDFTMRVNGRQIHVKINNMKVNGQWRIKSVHLR” it was 0.537; in that of “EEEDREFEERWKEFEHAMRTGDEDSLEENLDPNVRFLFDGQEIVGRELTSKFIAEWLRSLGVEKVTIFMRRFHVIGDKVTVDGAFEVNGVHIRTIVYSKKVNGRWFNKSEEFR”, 0.733; in that of “EEEDRIFKEARRLLEYVSETGDETTLKKLVDPHARTHIGDKLLHGREWLHDLLRKAGEDRFHFIIHHVDLQGDKIQMFGQLVIGDKLIHVEIIVNKIDGRWFVESIKID”, 0.889. In the case of “EEEEEDARRASKIFYHNFLTGDEQNLLKLADPHVLLIINGVHFHGWERYKKWEEERRDKFKNVRLELEDMDVEVIGDKIESIIHLRVDIGDKRIHMEVIFIIEKVDGRWKLRSQEVRIE” it was 1.03; in that of “EEEEEELLELLKRLWHAKSTGDEETTEKMADPNARFIINGREVHGRHMLNHLVKHLREEIKHVHIHRVSVVNGKAKMDTEVNVELEYNGVTFIIRTRVEIDTVVIDGRFHSVSIEIR”, 1.12. In the case of “EEEEEFLRIMIELFLRTVKTGDEDAFNKLADPNVKSNINGVTLHGMERHHEWLRIELEKAGVERVDTRLDDKNIIDGRVIVHGTMFYNGRTITVHNIWHKINGRWVLETIEIR”, the protease stability score worked out at 1.6. In the case of “EEEEEHMEHMMRLTLQLFKTGDEETFIDLLDPNVKVHINGVTVHGWDRLIRVKEMIDKEIRFRDFIIHHIRVVDGRAEMEGTVTGDVNGQSRIRDWRSILVVIDGKIKSISWQFN” it was 2.27; in that of “EEEEEKQERALRWFLHIIETGNEELLHRLLDPNVQVEIGDKRFHGWKHLLMVFNDLGVKHVELRDFTIINGVIRNEILLRVGDKENLTILILRKVDGKWQLERFNLQ”, 1.79; in that of “EEEEENAKQFFHIWERSMRTGDEKTLHELADPHVRAVIGDKHHIGREEFHEVIRQTMEHIRVDDMILHTIMVYDGKVEILGRLVVRVGDKTHEVHVKIQVEKINGRWLLTELHIK”, 0.074. In the case of “EEEEESVQRAMERILHALQTGDWHTLSRMADPHVKLLVNGVELHGMEKIEEFLKKLLEELGVDKIDVRLHDFHTFNGVVHVDVRSHFNGRTHREEWVLLKVNGRWSLKEVRTE” it was 1.44; in that of “EEEEKEADEEVRIMIKSLYTGDEDTVHEMADPNALVKVGDKTIHGMHLFLHTWIRRMEKHGIRVEVRLDDLEIQGEKIHIHLTLIYRFNGKDYPIEFEIHVNKINGQWRVSEIIEI”, 1.25. In the case of “EEEEKEIKDLLREIFEMIVTGDWRLIRENMDPNARMEVGDKEVHGRDHVIHHLHNLGFKHIKEKDINVQGEKISIHGHVDVNGRSRHVDFIAHKVNGKWLYKSFHFH” it was 0.826; in that of “EEEEKHAKHVAKEFLRLLFTGNEHRLKEYLDPNVRLDVNGQEFHGWEEIVKWLREIRFEDSRLHRIRVVGDKIDIDGELDGVINGRRVDRRSIIILFVVDGRYTEVTYRNI”, 1.26. In the case of “EEEEKHEREMAKIMLDVLRTGDEELFERMFDPNTRYEVGDKILHGRHEVLRNWLEMIKKFKNARFITRHVHVFNGVLHINIEVRFDGRTHEYHIDLFFWDGRFKEVRVESH”, the protease stability score amounted to 1.54. In the case of “EEEEKMARKMIKDIIENFRTGDWDLMETLADPDVRLHFNGRDYHGREEFLKIERTRFEKVPNVRETERNVTWRNFDGRLELEIHTEHIINGVRIHVLLIFTTEKINGRWSMKSIEIHEK” it was 0.704; in that of “EEEEKVEHDLLRLFAEALSTGNEHIMAELLDPHVRIIVNGKHNIGRETRKTFIEHIRVRSEDVRIRTIEVQGDKIITDSEMDIILDFDGVRTTTTVEVQIIIWKYNGKWYIKMVKFK”, 1.36; in that of “EEEEQHMKEMAHIFIELMETGDEERLHKYFDPNWRFRIGDKHHHGRETYIHWLHQLGVDKVKVHLRHLDFQGDKLRIDSEREFDGKIEKIDIILIKFNGRWIINEIRVD”, 1.29. In the case of “EEEERESEEKFRLLLELLRTGDEEILKHMADPNTKIVINGVDLHGWKEWHRIMRRFKNVTIRFKELWVYGDKAQARVEFDIDGKSFEMELHFVVINGRLKSIHVHSH” it was 2.11. For “EEEERILFEEMEHLLHNFLTGNEEHLHELIDPRVRILIGDKDIHGMELHANIWKKVKGIKEEYHVHRVKLYNGRNEMDTEVRRVIDGQELSVRTKIIFDVVDGKLKSAEIRFH” the value was 0.771; for “EEEERVAVEFFRTLQESIRTGDEKTVKELADPNTRLDVGDKHFHGMEEIRKYWLRFDHFERHTLREEDFDVVNGVMSVHGRLEVHGRYNGQRVHTHYHMVIFVLKVNGRWKITEIKLH”, 1. With “EEEEWLVKIAIRILIETFRTGDFHLWEELADPNTRLRIGNFEFHGREEVLHSLIEMRIHSVHIEDHKVIDGRLHVDSRLLGTFNGQHINRETRLISLKINGVWFIKSFEFV”, the protease stability score stood at 0.648. For “EEEHELTELLSRLWVHAIRTGDEDTLKELMDPNTRFEINGKEHIGRERLTDAFRELRVHRLHIEHIEIQGDKVLMETRSDIEINGVRRETETRIILHVVNGRIKEVRVHIK” the value was 1.84.

Sequence “EEEHKFITDIVRLFQELLRTGDFTLLRRMIDPHARIDINGVENHGWEKTARHIWELGMTRESEVRIRDVKVYDGRVEIDIEVEIHNDYNGRKIVVRHEIILFVIKFNGRWNLEQIHIK” showed a protease stability score of 1.65. For “EEEKDWSTEVLRLFLEMMATGDWEFLARFLDPHVKLEVDGREFHGREEVSRSLEEHFRKFGADHVEIRLRRIREVDGRLHVDGRLILHIGDKTIERDMQVHSYKIDGQWSIHEVTHK” the value was 1.45.

Regarding “EEEKEHAREIVDILWELHETGDEEIFRTLADPDVRLLIGDKKIVGREEIWRKLKEVHKHWRLKSYHTRHLHVQGEKVTIDGVINGVYDGVDTSIDVNIQIFTFNGRFRSMREHYS”, the protease stability score is 0.317.

The sequence “EEEKEHLTHMAKLFHDLTQTGDEHLFNHLADPHVKIDVHIGDKDLHFHGREEFLWWILEIIEQWRIEFDLRDTIPVNGKVHVKTDIKINVNGREHRIETRLHLVIVNGKLKESEIRVS” gave a protease stability score of 1.69.
